Results as given in PMC9815587, “The structure of the human LACTB filament reveals the mechanisms of assembly and membrane binding” (PLOS Biology, 2022).
Where a chain is given by its changes, count along the chain named.

How the values were obtained:
[1] = biological target: the molecule itself; assay: negative-stain TEM; SEC peak fractions diluted to approximately 2.0 μm (so in the source), 0.75% uranyl formate, Tecnai T12 at 100 kV; self-assembly into filaments
[2] = biological target: the molecule itself; assay: SEC; Superose 6 Increase 10/300 GL; 20 mM HEPES-NaOH (pH 7.5), 140 mM NaCl, 10 mM KCl, 1 mM MgCl2, 1 mM DTT; self-assembly, filaments elute within the void volume

B1: human LACTB (residues 97 to 547) with the flexible loop region (residues K255 to K284) replaced by a GGS linker (enzyme)
chain: APPCSRCFARAIESSRDLLHRIKDEVGAPGIVVGVSVDGKEVWSEGLGYADVENRVPCKPETVMRIASISKSLTMVALAKLWEAGKLDLDIPVQHYVPEFPEKEYEGEKVSVTTRLLISHLSGIRHYEKDIKKVKEEKAYKALKMMKENVAFEQEKEGGGSNDFEQGELYLREKFENSIESLRLFKNDPLFFKPGSQFLYSTFGYTLLAAIVERASGCKYLDYMQKIFHDLDMLTTVQEENEPVIYNRARFYVYNKKKRLVNTPYVDNSYKWAGGGFLSTVGDLLKFGNAMLYGYQVGLFKNSNENLLPGYLKPETMVMMWTPVPNTEMSWDKEGKYAMAWGVVERKQTYGSCRKQRHYASHTGGAVGASSVLLVLPEELDTETINNKVPPRGIIVSIICNMQSVGLNSTALKIALEFDKDRSD
notes: human LACTB, residues 97 up to the residue before K255; GGS linker in place of K255 to K284; human LACTB, from the residue after K284 to 547; also called ΔL6; flexible loop deletion; source: E. coli BL21(DE3)-RIPL, purified (Ni-NTA, tag removed with Ulp1, SEC on Superose 6 Increase); not shown: His6, N-terminal, cleaved; SUMO, N-terminal, cleaved
Q: Does B1 bind [1]?
A: Result: binds

B2: human LACTB (residues 97 to 547), wild-type (enzyme, UniProt P83111 97-547, looked up)
chain: APPCSRCFARAIESSRDLLHRIKDEVGAPGIVVGVSVDGKEVWSEGLGYADVENRVPCKPETVMRIASISKSLTMVALAKLWEAGKLDLDIPVQHYVPEFPEKEYEGEKVSVTTRLLISHLSGIRHYEKDIKKVKEEKAYKALKMMKENVAFEQEKEGKSNEKNDFTKFKTEQENEAKCRNSKPGKKKNDFEQGELYLREKFENSIESLRLFKNDPLFFKPGSQFLYSTFGYTLLAAIVERASGCKYLDYMQKIFHDLDMLTTVQEENEPVIYNRARFYVYNKKKRLVNTPYVDNSYKWAGGGFLSTVGDLLKFGNAMLYGYQVGLFKNSNENLLPGYLKPETMVMMWTPVPNTEMSWDKEGKYAMAWGVVERKQTYGSCRKQRHYASHTGGAVGASSVLLVLPEELDTETINNKVPPRGIIVSIICNMQSVGLNSTALKIALEFDKDRSD
notes: human LACTB (serine beta-lactamase-like protein, mitochondrial), residues 97 to 547 of the gene product of residues 1 to 547; Assembles into helical filaments of stacked antiparallel dimers; number of copies not fixed; also called WT LACTB; serine beta-lactamase-like protein; source: E. coli BL21(DE3)-RIPL, purified (Ni-NTA, tag removed with Ulp1, SEC on Superose 6 Increase); not shown: His6, …
Q: Does B2 bind [2]?
A: Result: binds

B3: human LACTB (residues 97 to 547) 259EAxAxEAE266 mutant (enzyme, UniProt P83111 97-547, looked up)
chain: B2 chain with K163E, N164A, F166A, K168E, F169A, K170E
notes: human LACTB, residues 97 to 547, motif 259KNxFxKFK266 changed to 259EAxAxEAE266; single changes counted out from the printed motifs; source: E. coli BL21(DE3)-RIPL, purified (Ni-NTA, tag removed with Ulp1, SEC on Superose 6 Increase); not shown: His6, N-terminal, cleaved; SUMO, N-terminal, cleaved
Q: Does B3 bind [1]?
A: Result: binds

B4: human LACTB (residues 97 to 547) R117E (enzyme, UniProt P83111 97-547, looked up)
chain: B2 chain with R21E
notes: human LACTB, residues 97 to 547, polymer interface 1 charge-reversal mutant; source: E. coli BL21(DE3)-RIPL, purified (Ni-NTA, tag removed with Ulp1, SEC on Superose 6 Increase); not shown: His6, N-terminal, cleaved; SUMO, N-terminal, cleaved
Q: Does B4 bind [1]?
A: Result: binds

B5: human LACTB (residues 97 to 547) 274ExExxExxEEE284 mutant (enzyme, UniProt P83111 97-547, looked up)
chain: B2 chain with K178E, R180E, K183E, K186E, K187E, K188E
notes: human LACTB, residues 97 to 547, motif 274KxRxxKxxKKK284 changed to 274ExExxExxEEE284; single changes counted out from the printed motifs; source: E. coli BL21(DE3)-RIPL, purified (Ni-NTA, tag removed with Ulp1, SEC on Superose 6 Increase); not shown: His6, N-terminal, cleaved; SUMO, N-terminal, cleaved
Q: Does B5 bind [1]?
A: Result: binds

B6: human LACTB (residues 97 to 547) with the L15 loop (V467 to Y482) replaced by a GGS linker (enzyme)
chain: APPCSRCFARAIESSRDLLHRIKDEVGAPGIVVGVSVDGKEVWSEGLGYADVENRVPCKPETVMRIASISKSLTMVALAKLWEAGKLDLDIPVQHYVPEFPEKEYEGEKVSVTTRLLISHLSGIRHYEKDIKKVKEEKAYKALKMMKENVAFEQEKEGKSNEKNDFTKFKTEQENEAKCRNSKPGKKKNDFEQGELYLREKFENSIESLRLFKNDPLFFKPGSQFLYSTFGYTLLAAIVERASGCKYLDYMQKIFHDLDMLTTVQEENEPVIYNRARFYVYNKKKRLVNTPYVDNSYKWAGGGFLSTVGDLLKFGNAMLYGYQVGLFKNSNENLLPGYLKPETMVMMWTPVPNTEMSWDKEGKYAMAWGVGGSASHTGGAVGASSVLLVLPEELDTETINNKVPPRGIIVSIICNMQSVGLNSTALKIALEFDKDRSD
notes: human LACTB, residues 97 up to the residue before V467; glycine-glycine-serine (GGS) linker in place of V467 to Y482; human LACTB, from the residue after Y482 to 547; also called L15 loop replacement; removal of the L15 loop; source: E. coli BL21(DE3)-RIPL, purified (Ni-NTA, tag removed with Ulp1, SEC on Superose 6 Increase); not shown: His6, N-terminal, cleaved; SUMO, N-terminal, cleaved
Q: Does B6 bind [1]?
A: Result: binds
